Experimental data taken from paper PMC6203816 (Nature Communications, 2018).

B1: 830 A (antibody, V domains shown)
VH: QVQLQQWGPGLLKPSETLSLTCAVYGGSFGRYYWSWIRQSSGEGLEWLGQIDHTGSTTYNPSLKGRVTISIDSSTNQFSLKVTSVIAADTAVYYCARAPSGYPGVSLYQYYGLDVWGQGTTVTVSS
VL: DTVMTQSPATLSVSPGERVTLSCRASQIINTNLAWYQKRPGQAPRLLIYAASARATGIPARFSGSGSGTEFTLTISGLQSEDSAVYYCQQYKHWPPYTFGRGTKLEIR
notes: also called V2i mAb 830 A
B2: CAP228-3D IgG1 (antibody, V domains shown)
VH: EVQLVQSGAEVKKPGESLKISCKGFGYSFSTYWIAWVRQMPGKGLEWMGMIYPGDSDTKYSPSLQGQVTISGDKSISTAYLQWSSLKASDTAMYYCARLLNNYDSSGFLYWYLDLWGRGTLVTVSS
VL: NFMLTQPHSVSESPGKTVTISCTRSSGSIASDYVQWYQQRPGSSPTTVIYEDNQRPSGVPDRFSGSIDSSSNSASLTISGLKTEDEADYYCQSYDMTNHNWVFGGGTKLTVL

Molecular target: C1080 envelope on concentrated pseudovirus particles (HIV-1 strain C1080 (clone C1080.c3 …, UniProt I6NF57, strain))
Assay: ELISA
Conditions: one partner purified

Row | Binder | binding result
1 | B1 | binds
2 | B2 | binds
